Results from the RNAGym collection of RNA variant scans (doi:10.7554/elife.80360).

B1: Hairpin Ribozyme (parent)
chain: GUCCUCUUUCACGUGCGCGUGAAAGAGAGAAGUGAACCAGAGAAACACACGUUGUGGUAUAUUACCUGGUA

Variants of: B1
Assay: self-cleavage, relative activity (ratio to wild type); higher = more cleavage; co-transcriptional

Variant | self-cleavage
G21U G56C | 0.116
G21C U70G | 0.658
G21U A31G | 0.325
G21U A31C | 0.0844
U20C C46U | 0.103
U20C C46A | 0.237
A22U A28G | 1.13
U20C A47U | 0.161
G21C G27A | 0.186
A22U A24G | 0.76
U20C G27A | 0.345
U20C G27C | 0.169
U20G A30C | 0.194
A22C G68C | 0.247
A22G A44G | 0.193
A22G A44U | 0.123
G21A A71U | 0.611
A22U A36C | 0.589
A22U A36G | 0.849
A22C A30G | 0.179
A22C A30U | 0.0473
G21U A22G | 0.736
G21U A22C | 0.763
G21U A35U | 0.626

Variant | self-cleavage
G21U A35C | 0.841
U20G A22G | 0.959
U20G A22U | 0.868
U20C U55A | 0.407
G21C A64G | 0.564
G21C U53A | 0.671
G21U G40A | 0.309
G21U G40U | 0.147
G21C U58G | 0.647
U20C A41G | 0.886
U20C A41U | 1.36
G21U G27C | 0.172
U20C U62C | 0.462
A22C A44C | 0.0803
A22G C48G | 0.136
A22G C48A | 0.16
A22G G68A | 0.307
A22G G68U | 0.362
A22G G68C | 0.182
A22U A30G | 0.159
G21U C37U | 0.373
A22G G29C | 0.129
G21A C38U | 0.466
U20G U60A | 0.775

Variant | self-cleavage
U20G U60C | 0.815
G21A G34U | 1.08
U20C A45U | 0.076
A22G C46A | 0.171
G21C A47C | 0.254
G21C A47U | 0.181
G21C U63G | 0.191
G21C U63A | 0.0855
G21U A64C | 0.149
U20G C65G | 0.177
U20G C65A | 0.895
G21C A26U | 0.57
G21A A64C | 0.207
U20G G25U | 0.64
G21U A39U | 0.293
U20G G54C | 0.321
G21A A22G | 0.728
A22C C66G | 0.0576
A22C A45U | 0.108
A22C A45C | 0.128
A22C A64C | 0.101
A22C A64U | 0.251
A22G C38U | 0.589
A22G C38G | 0.185

Variant | self-cleavage
G21U C66U | 0.427
A22U A26G | 0.743
U20G A64U | 0.141
U20G A64C | 0.184
G21U G34U | 1.24
G21A G68C | 0.15
U20G A71U | 0.605
U20G A71G | 0.971
U20C G29U | 0.235
G21C A43U | 0.0826
U20C A43C | 0.0285
G21U U58A | 0.493
A22G A31U | 0.226
A22G G54A | 0.428
A22G A64U | 0.173
A22C A26U | 0.429
A22U A61C | 0.171
U20C G51C | 0.54
U20C G51U | 1.07
A22C G40U | 0.19
G21A U33C | 0.116
G21A U33G | 0.104
A22C U63C | 0.203
U20C A24G | 0.758

Variant | self-cleavage
A22C A47U | 0.208
A22C A47C | 0.24
A22C A47G | 0.187
A22G G40C | 0.146
A22G G40A | 0.272
U20C A39C | 0.562
G21C G69A | 0.419
G21A A36G | 0.959
U20C U33C | 0.13
G21U U67C | 0.23
G21U A26C | 0.123
A22C G57A | 0.119
A22U A41G | 0.776
A22U A41U | 1.14
G21C U60G | 0.55
G21C C50G | 0.278
G21U U52C | 0.764
G21U U52A | 0.806
G21C A36G | 0.779
U20C U58A | 0.673
U20C U58C | 0.893
G21U A24U | 0.78
A22U A45U | 0.143
U20C A59C | 0.185

Variant | self-cleavage
G21A A35C | 0.788
A22U A44C | 0.239
A22U A44G | 0.113
A22C U70G | 0.763
A22C A39G | 0.362
A22C A39C | 0.539
A22U A43G | 0.237
G21C G32U | 0.0815
G21C G32A | 0.141
G21U U63A | 0.105
U20G C50U | 0.42
U20G C50A | 0.246
U20C C37A | 0.426
U20C C37G | 0.342
A22G U53C | 0.817
G21A A28U | 0.719
U20C A35U | 0.82
U20C A35C | 0.785
U20G G27U | 0.154
A22G U33A | 0.115
A22G U33C | 0.192
A22G G25C | 0.547
U20G C46U | 0.0821
U20G A36C | 0.771

Variant | self-cleavage
U20G A36U | 0.749
G21C C38U | 0.452
U20G G32A | 0.124
G21U A49C | 0.219
G21A U63G | 0.118
G21A U63C | 0.155
U20G A45U | 0.117
G21U A41U | 1.24
G21U A41C | 1.12
G21U A44U | 0.165
U20G C48G | 0.179
G21U A23C | 0.595
G21A U70A | 0.742
U20C A26C | 0.329
G21C C37G | 0.425
G21A G57A | 0.192
U20G A39G | 0.27
G21A A43G | 0.127
U20C A44C | 0.155
A22C G54C | 0.317
G21U U62G | 0.156
A22C A36U | 0.581
A22C A36C | 0.559
